{
  "source": "the supplement of paper PMC10567573",
  "parents": {"B1": {"name": "CLCN6 (parent)", "chain": "FQSISLRKIQFNFPYFRSDRDKRD"}},
  "data": [
    {"variants_of": "B1", "assay": "protein stability index of a GFP-peptide fusion (GPS, HEK-293T) (PSI 1-6); higher = more stable", "details": "c terminus: a fixed tail appended", "values": [
      {"variant": "FQSISLRKGQFNFPYFRSDRDKRD", "protein stability index": 1.44},
      {"variant": "FQSISLRKHQFNFPYFRSDRDKRD", "protein stability index": 1.83},
      {"variant": "FQSISLRKPQFNFPYFRSDRDKRD", "protein stability index": 1.65},
      {"variant": "FQSISLRKEQFNFPYFRSDRDKRD", "protein stability index": 1.98},
      {"variant": "FQSISLRKCQFNFPYFRSDRDKRD", "protein stability index": 1.98},
      {"variant": "FQSISLRKDQFNFPYFRSDRDKRD", "protein stability index": 1.72},
      {"variant": "FQSISLRKTQFNFPYFRSDRDKRD", "protein stability index": 2.78},
      {"variant": "FQSISLRKSQFNFPYFRSDRDKRD", "protein stability index": 2},
      {"variant": "FQSISLRKIQFNFPEFRSDRDKRD", "protein stability index": 2.7},
      {"variant": "FQSISLRKIQFNFPPFRSDRDKRD", "protein stability index": 2.41},
      {"variant": "FQSISLRKIQFNFPIFRSDRDKRD", "protein stability index": 2.15},
      {"variant": "FQSISLRKIQFNFPNFRSDRDKRD", "protein stability index": 2.78},
      {"variant": "FQSISLRKIQFNFPKFRSDRDKRD", "protein stability index": 2},
      {"variant": "FQSISLRKIQFNFPMFRSDRDKRD", "protein stability index": 1.53},
      {"variant": "FQSISLRKIQFNFPSFRSDRDKRD", "protein stability index": 2.58},
      {"variant": "FQSISLRKIQFNFPTFRSDRDKRD", "protein stability index": 2.75},
      {"variant": "FQSISLRKIQFNFPVFRSDRDKRD", "protein stability index": 2.22},
      {"variant": "FQSISLRKIQFNFPHFRSDRDKRD", "protein stability index": 2.78},
      {"variant": "FQSISLRKIQFNFPQFRSDRDKRD", "protein stability index": 2.56},
      {"variant": "FQSISLRKIQFNFPDFRSDRDKRD", "protein stability index": 2.31},
      {"variant": "FQSISLRKIQFNFPGFRSDRDKRD", "protein stability index": 2.68},
      {"variant": "FQSISLRKIQFNFPFFRSDRDKRD", "protein stability index": 1.48},
      {"variant": "FQSISLRKIQFNFPCFRSDRDKRD", "protein stability index": 2.21},
      {"variant": "FQSISLRKIQFNFPWFRSDRDKRD", "protein stability index": 1.44},
      {"variant": "FQSISLRKIQFNFPAFRSDRDKRD", "protein stability index": 3.09},
      {"variant": "FQSISLRKIQFNFPYFRSDRDKAD", "protein stability index": 1.73},
      {"variant": "FQSISLRKIQFNFPYFRSDRDKCD", "protein stability index": 1.67},
      {"variant": "FQSISLRKIQFNKPYFRSDRDKRD", "protein stability index": 1.8},
      {"variant": "FQSISLRKIQFNDPYFRSDRDKRD", "protein stability index": 1.98},
      {"variant": "FQSISLRKIQFNPPYFRSDRDKRD", "protein stability index": 1.75},
      {"variant": "FQSISLRKIQFNMPYFRSDRDKRD", "protein stability index": 2.29},
      {"variant": "FQSISLRKIQFNYPYFRSDRDKRD", "protein stability index": 2.49},
      {"variant": "FQSISLRKIQFNAPYFRSDRDKRD", "protein stability index": 1.84},
      {"variant": "FQSISLRKIQFNIPYFRSDRDKRD", "protein stability index": 1.35},
      {"variant": "FQSISLRKIQFNSPYFRSDRDKRD", "protein stability index": 1.59},
      {"variant": "FQSISLRKIQFNCPYFRSDRDKRD", "protein stability index": 2.2},
      {"variant": "FQSISLRKIQFNEPYFRSDRDKRD", "protein stability index": 3.21},
      {"variant": "FQSISLRKIQFNVPYFRSDRDKRD", "protein stability index": 1.43},
      {"variant": "FQSISLRKIQFNQPYFRSDRDKRD", "protein stability index": 2.28},
      {"variant": "FQSISLRKIQFNFPYTRSDRDKRD", "protein stability index": 1.9},
      {"variant": "FQSISLRKIQFNFPYQRSDRDKRD", "protein stability index": 2.39},
      {"variant": "FQSISLRKIQFNFPYERSDRDKRD", "protein stability index": 2.22},
      {"variant": "FQSISLRKIQFNFPYARSDRDKRD", "protein stability index": 1.68},
      {"variant": "FQSISLRKIQFNFPYDRSDRDKRD", "protein stability index": 2.74},
      {"variant": "FQSISLRKIQFNFPYHRSDRDKRD", "protein stability index": 2.3},
      {"variant": "FQSISLRKIQFNFPYWRSDRDKRD", "protein stability index": 2.08},
      {"variant": "FQSISLRKIQFNFPYCRSDRDKRD", "protein stability index": 1.52},
      {"variant": "FQSISLRKIQFNFPYLRSDRDKRD", "protein stability index": 1.44},
      {"variant": "FQSISLRKIQFNFPYPRSDRDKRD", "protein stability index": 1.47},
      {"variant": "FQSISLRKIQFNFPYNRSDRDKRD", "protein stability index": 2.68},
      {"variant": "FQSISLRKIQFNFPYIRSDRDKRD", "protein stability index": 2.18},
      {"variant": "FQSISLRKIQFNFPYSRSDRDKRD", "protein stability index": 1.83},
      {"variant": "FQSISLRKIQFNFPYFRRDRDKRD", "protein stability index": 2.16},
      {"variant": "FQSISLRKIQFNFPYFRDDRDKRD", "protein stability index": 1.71},
      {"variant": "FQSISLRKIQFNFPYFRMDRDKRD", "protein stability index": 1.38},
      {"variant": "FQSISLRKIQFNFPYFRQDRDKRD", "protein stability index": 1.52},
      {"variant": "FQSISLRKIQFNFPYFRHDRDKRD", "protein stability index": 1.93},
      {"variant": "FQSISLRKIQFNFPYFRADRDKRD", "protein stability index": 1.99},
      {"variant": "FQSISLRKIQFNFPYFRYDRDKRD", "protein stability index": 2.35},
      {"variant": "FQSISLRKIQFNFPYFRVDRDKRD", "protein stability index": 1.25},
      {"variant": "FQSISLRKIQFNFPYFRPDRDKRD", "protein stability index": 1.6},
      {"variant": "FQSISLRKIQFNFPYFRTDRDKRD", "protein stability index": 2.31},
      {"variant": "FQSISLRKIQFNFPYFRNDRDKRD", "protein stability index": 2.62},
      {"variant": "FQSISLRKIQFMFPYFRSDRDKRD", "protein stability index": 1.54},
      {"variant": "FQSISLRKIQFIFPYFRSDRDKRD", "protein stability index": 2.06},
      {"variant": "FQSISLRKIQFAFPYFRSDRDKRD", "protein stability index": 1.09},
      {"variant": "FQSISLRKIQFSFPYFRSDRDKRD", "protein stability index": 1.65},
      {"variant": "FQSISLRKIQFRFPYFRSDRDKRD", "protein stability index": 2.59},
      {"variant": "FQSISLRKIQFDFPYFRSDRDKRD", "protein stability index": 1.53},
      {"variant": "FQSISLRKIQFVFPYFRSDRDKRD", "protein stability index": 1.9},
      {"variant": "FQSISLRKIQFEFPYFRSDRDKRD", "protein stability index": 1.5},
      {"variant": "FQSISLRKIQFKFPYFRSDRDKRD", "protein stability index": 2.04},
      {"variant": "FQSISLRKIQFTFPYFRSDRDKRD", "protein stability index": 2.37},
      {"variant": "FQSISLRPIQFNFPYFRSDRDKRD", "protein stability index": 2.92},
      {"variant": "FQSISLRWIQFNFPYFRSDRDKRD", "protein stability index": 2.43},
      {"variant": "FQSISLRSIQFNFPYFRSDRDKRD", "protein stability index": 1.31},
      {"variant": "FQSISLRQIQFNFPYFRSDRDKRD", "protein stability index": 2.12},
      {"variant": "FQSISLRTIQFNFPYFRSDRDKRD", "protein stability index": 1.44},
      {"variant": "FQSISLRNIQFNFPYFRSDRDKRD", "protein stability index": 2.18},
      {"variant": "FQSISLRYIQFNFPYFRSDRDKRD", "protein stability index": 2.09},
      {"variant": "FQSISLRRIQFNFPYFRSDRDKRD", "protein stability index": 1.74},
      {"variant": "FQSISLRKIQFNFPYFRSDRCKRD", "protein stability index": 2.4},
      {"variant": "FQSISLRKIQFNFPYFRSDRRKRD", "protein stability index": 1.19},
      {"variant": "FQSISLRKIQFNFPYFRSDRMKRD", "protein stability index": 2.08},
      {"variant": "FQSISLRKIQFNFPYFRSDRYKRD", "protein stability index": 1.22},
      {"variant": "FQSISLRKIQFNFPYFRSDREKRD", "protein stability index": 1.1},
      {"variant": "FQSISLRKIQFNFPYFRSDRKKRD", "protein stability index": 1.31},
      {"variant": "FQSISLRKIQFNFPYFRSDRHKRD", "protein stability index": 2.02},
      {"variant": "FQSISLRKIQFNFPYFRSDRAKRD", "protein stability index": 3.22},
      {"variant": "FQSISLRKIQFNFPYFRSDRSKRD", "protein stability index": 3.06},
      {"variant": "FQSISLRKIQFNFPYFRSDRGKRD", "protein stability index": 1.27},
      {"variant": "FQSISLRKIQFNFPYFRSDRFKRD", "protein stability index": 3.21},
      {"variant": "FQSISLRKIQFNFPYFRSDRVKRD", "protein stability index": 2.94},
      {"variant": "FQSISLRKIQFNFPYFRSDRPKRD", "protein stability index": 2.61}
    ]}
  ]
}
